B1: FLAG-tagged UbxD8 (wild type) (natural protein)
chain: MAAPEERDLTQEQTEKLLQFQDLTGIESMDQCRHTLEQHNWNIEAAVQDRLNEQEGVPSVFNPPPSRPLQVNTADHRIYSYVVSRPQPRGLLGWGYYLIMLPFRFTYYTILDIFRFALRFIRPDPRSRVTDPVGDIVSFMHSFEEKYGRAHPVFYQGTYSQALNDAKRELRFLLVYLHGDDHQDSDEFCRNTLCAPEVISLINTRMLFWACSTNKPEGYRVSQALRENTYPFLAMIMLKDRRMTVVGRLEGLIQPDDLINQLTFIMDANQTYLVSERLEREERNQTQVLRQQQDEAYLASLRADQEKERKKREERERKRRKEEEVQQQKLAEERRRQNLQEEKERKLECLPPEPSPDDPESVKIIFKLPNDSRVERRFHFSQSLTVIHDFLFSLKESPEKFQIEANFPRRVLPCIPSEEWPNPPTLQEAGLSHTEVLFVQDLTDE
B2: FLAG-tagged UBAC2 (recombinant, WT) (natural protein)
chain: HCQKLFVYDLHAVKNDFQIWRLICGRIICLDLKDTFCSSLLIYNFRIFERRYGSRKFASFLLGSWVLSALFDFLLIEAMQYFFGITAASNLPSGFLAPVFALFVPFYCSIPRVQVAQILGPLSITNKTLIYILGLQLFTSGSYIWIVAISGLMSGLCYDSKMFQVHQVLCIPSWMAKFFSWTLEPIFSSSEPTSEARIGMGATLDIQRQQRMELLDRQLMFSQFAQGRRQRQQQGGMINWNRLFPPLRQRQNVNYQGGRQSEPAAPPLEVSEEQVARLMEMGFSRGDALEALRASNNDLNVATNFLLQH

Legend:
[1] = biological target: FLAG-tagged gp78 (UniProt Q9UKV5 1-643); experiment: co-IP
[2] = biological target: B1; experiment: co-IP

Sequence of FLAG-tagged gp78 (Q9UKV5 whole entry): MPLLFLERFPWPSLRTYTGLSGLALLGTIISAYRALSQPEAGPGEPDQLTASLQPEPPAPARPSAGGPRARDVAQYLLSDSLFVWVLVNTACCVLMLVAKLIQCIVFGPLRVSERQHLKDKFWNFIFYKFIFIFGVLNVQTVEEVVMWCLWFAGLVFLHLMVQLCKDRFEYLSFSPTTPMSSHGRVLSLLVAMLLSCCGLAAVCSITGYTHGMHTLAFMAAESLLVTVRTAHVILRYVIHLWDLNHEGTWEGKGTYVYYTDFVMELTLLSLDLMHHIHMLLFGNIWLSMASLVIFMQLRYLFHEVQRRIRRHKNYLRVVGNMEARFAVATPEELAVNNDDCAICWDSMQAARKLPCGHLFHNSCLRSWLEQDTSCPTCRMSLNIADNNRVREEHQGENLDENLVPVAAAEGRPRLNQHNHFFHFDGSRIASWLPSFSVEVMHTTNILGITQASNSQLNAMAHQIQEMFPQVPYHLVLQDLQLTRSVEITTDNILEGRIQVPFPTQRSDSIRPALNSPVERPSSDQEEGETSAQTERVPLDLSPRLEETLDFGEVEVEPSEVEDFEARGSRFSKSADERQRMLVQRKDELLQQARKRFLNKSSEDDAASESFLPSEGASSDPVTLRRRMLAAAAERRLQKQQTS

Binder | stoichiometry N [1] | stoichiometry N [2] [UBAC2 per UbxD8]
B1 | ~1 UbxD8 per gp78 | –
B2 | ~2 UBAC2 per gp78 | ~2

Reference: publication PMC4666138 (Molecular Biology of the Cell, 2015)
